Experimental data taken from patent US10927354B2, “D-type amino acid dehydrogenase” (Kureha Corporation, priority 2017, dated 2021).

Experiments:
[1] = system: D-type amino acid dehydrogenase derived from N. massiliense; assay: Kinetic analysis of D-type amino acid dehydrogenase; assay type: biochemical, Numidum massiliense; conditions: meso-diaminopimelic acid as substrate, NADP^+ or NAD^+ as coenzyme; values for meso-diaminopimelic acid determined using NADP^+
Protocol: The absorbance was measured by an ultraviolet-visible spectrophotometer UV-1800 (available from SHIMADZU). The specific activity of the enzyme was calculated from the concentration of the enzyme used and enzyme dilution rate using the obtained absorbance change and the following equation. […] A turnover number (kcat) as a reaction rate parameter, a Michaelis constant (Km) value, and catalytic efficiency (kcat/Km) were determined with Igor Pro ver. 3.14 (available from WaveMetrics) based on Michaelis-Menten equation after the initial velocities were plotted against different substrates and coenzyme concentrations.

[2] = Coenzyme dependence by activity-staining; assay type: biochemical; conditions: 10 mM meso-diaminopimelic acid, 1.25 mM coenzyme, pH 8.0, 50° C., 30 minutes
Protocol: The coenzyme dependence was evaluated for the D-type amino acid dehydrogenase obtained in Example 2 above. The coenzyme dependence of the enzyme was evaluated by an activity-staining method due to a catalytic reaction of the enzyme.
More specifically, an appropriate amount of enzyme solution was subjected to disc gel electrophoresis. […] The 2-(4-iodophenyl)-3-(4-nitrophenyl)-5-phenyl-2H-tetrazolium chloride in the reaction solution is reduced to form a […] formazan. A reaction formula is indicated below. In the following reaction formula, the D-type amino acid dehydrogenase is referred to as “meso-DAPDH”.

[3] = Thermal stability of D-type amino acid dehydrogenase; assay type: physicochemical; conditions: 60° C., 30 minutes, 10 mM phosphate buffer pH 7.2; relative to treatment at 40° C. as 100%
Protocol: The D-type amino acid dehydrogenase purified in Example 2 was heat-treated in 10 mM phosphate buffer solution (pH 7.2) under various temperature conditions (40° C., 45° C., 50° C., 55° C., 60° C., 65° C., or 70° C.) for 30 minutes to confirm residual activity after being left to stand for 5 minutes on ice. […] The residual activity after treatment at other temperatures was calculated as a relative activity with treatment at 40° C. as 100%.

[4] = pH stability of D-type amino acid dehydrogenase; assay type: physicochemical; conditions: pH 5.5 to 9.5, 50° C., 30 minutes; relative to pH 5.5 as 100%
Protocol: The D-type amino acid dehydrogenase purified in Example 2 was subjected to a heat treatment at 50° C., in 100 mM of each buffer solution (pH 4.0, 4.5, 5.0, 5.5, 6.0, 6.5, 7.0, 7.5, 8.0, 8.5, 9.0, 9.5, 10.0, 10.5, 11.0, 11.3, 12.0, 12.3, or 13.0) for 30 minutes to confirm residual activity after being left to stand for 5 minutes on ice. […] The residual activity after treatment at other pH was calculated as a relative activity with treatment at pH 5.5 as 100%.

[5] = Activity-staining with D-alanine or L-alanine; assay type: biochemical; conditions: 10 mM D-alanine or L-alanine, 1.25 mM NADP^+, pH 8.0, 50° C., 30 minutes
Protocol: The activity was evaluated for the D-type amino acid dehydrogenase obtained in Example 2 above. The activity of the enzyme was evaluated by an activity-staining method due to a catalytic reaction of the enzyme. More specifically, an appropriate amount of enzyme solution was subjected to disc gel electrophoresis. […] 2-(4-iodophenyl)-3-(4-nitrophenyl)-5-phenyl-2H-tetrazolium chloride in the reaction solution is reduced to form a […] formazan. A reaction formula is indicated below. In the following reaction formula, the D-type amino acid dehydrogenase is referred to as “meso-DAPDH”.

[6] = Optimum pH in catalytic reaction (deamination of meso-diaminopimelic acid); assay type: biochemical; conditions: deamination of 10 mM meso-diaminopimelic acid, 1.25 mM NADP^+, 50° C.
Protocol: The optimum pH was evaluated for the D-type amino acid dehydrogenase obtained in Example 2. The activity of the enzyme was measured by determining an increase in absorbance at wavelength of 340 nm of NADPH produced by the catalytic reaction of the enzyme.
The absorbance was measured by an ultraviolet-visible spectrophotometer UV-1800 (available from SHIMADZU). The specific activity of the enzyme was calculated from the concentration of the enzyme used and enzyme dilution rate using the obtained absorbance change and the following equation.

[7] = Optimum temperature in catalytic reaction; assay type: biochemical; conditions: deamination of meso-diaminopimelic acid, NADP^+, 50-80° C. tested
Protocol: The measurement results are illustrated in FIG. 6. From the results, it was confirmed that the optimum temperature for activity was about 75° C.

| Molecule | kcat [1] [s⁻¹] | coenzyme dependence (activity-staining) [2] | residual activity after heat treatment [3] | residual activity after pH treatment [4] [%] | D/L selectivity (activity-staining) [5] | optimum pH for activity [6] | optimum temperature for activity [7] |
| --- | --- | --- | --- | --- | --- | --- | --- |
| NC(=O)c1ccc[n+]([C@@H]2O[C@H](COP(=O)([O-])OP(=O)(O)OC[C@H]3O[C@@H](n4cnc5c(N)ncnc54)[C@H](O)[C@@H]3O)[C@@H](O)[C@H]2O)c1 [NAD^1] | 8930 | – | – | – | – | – | – |
| D-type amino acid dehydrogenase: D-type amino acid dehydrogenase derived from N. massiliense, amino acid sequence SEQ ID NO: 2, hexamer (protein, hexamer; Numidum massiliense) MSNVYNVAVVGYGNIGKYAVQAIDAAPDMQLAGVVRRASSAAKDTPPELVGRRVVHDIRDLEQVDVAILAAPTRTIPAYARDVLSLGIHTVDSYDIHGELANLRRELDDVSKKNDSVAIISAGWDPGTDSMIRGMLEFMAPGGLTYTNFGPGMSMGHSVAVKAIDGVKDALSLTIPLGTSIHRRMVYVELEAGADFETVKKAILADPYFVNDETHVTQVPNVQQLVNVGHGVSMERRGVSGATHNQLFTFEMRINNPALTSQVLVAAARATFKQQPGAYTMIEVPVIDYLPGDRDDIIRRLV | – | utilized both NAD^+ and NADP^+ coenzymes | about 76% | ≥ 90 | selectively acts on the D-amino acid | 10.5 | about 75 °C |
